From patent US20140322218A1 (Amgen, published 2014)

Tests used:
[1] = molecular target: T1, huCDH19(44-772), Flag-tagged, on 293T cells (human, UniProt Q9H159 44-772); experiment: FACS, transfected 293T
T1 construct: Expressed with native leader (1-43) followed by a Flag tag; leader left out; also called Hu EC1-5
Source text: (§1) The experiment included assaying the anti-CDH19 antibodies against mouse Cadherin19 to determine suitability for binning on these human/mouse chimeras.

[2] = molecular target: T2, huCDH19(44-141)::muCDH19(140-770), Flag-tagged, on 293T cells (human/mouse chimera); experiment: FACS, transfected 293T
T2 construct: also called Hu EC1
Source text: as §1

[3] = molecular target: T3, huCDH19(44-249)::muCDH19(248-770), Flag-tagged, on 293T cells (human/mouse chimera); experiment: FACS, transfected 293T
T3 construct: also called Hu EC1-2; C137896
Source text: as §1

[4] = molecular target: T4, muCDH19(44-139)::huCDH19(142-249)::muCDH19(248-770), Flag-tagged, on 293T cells (human/mouse chimera); experiment: FACS, transfected 293T
T4 construct: also called Hu EC2; C137913
T4 chain: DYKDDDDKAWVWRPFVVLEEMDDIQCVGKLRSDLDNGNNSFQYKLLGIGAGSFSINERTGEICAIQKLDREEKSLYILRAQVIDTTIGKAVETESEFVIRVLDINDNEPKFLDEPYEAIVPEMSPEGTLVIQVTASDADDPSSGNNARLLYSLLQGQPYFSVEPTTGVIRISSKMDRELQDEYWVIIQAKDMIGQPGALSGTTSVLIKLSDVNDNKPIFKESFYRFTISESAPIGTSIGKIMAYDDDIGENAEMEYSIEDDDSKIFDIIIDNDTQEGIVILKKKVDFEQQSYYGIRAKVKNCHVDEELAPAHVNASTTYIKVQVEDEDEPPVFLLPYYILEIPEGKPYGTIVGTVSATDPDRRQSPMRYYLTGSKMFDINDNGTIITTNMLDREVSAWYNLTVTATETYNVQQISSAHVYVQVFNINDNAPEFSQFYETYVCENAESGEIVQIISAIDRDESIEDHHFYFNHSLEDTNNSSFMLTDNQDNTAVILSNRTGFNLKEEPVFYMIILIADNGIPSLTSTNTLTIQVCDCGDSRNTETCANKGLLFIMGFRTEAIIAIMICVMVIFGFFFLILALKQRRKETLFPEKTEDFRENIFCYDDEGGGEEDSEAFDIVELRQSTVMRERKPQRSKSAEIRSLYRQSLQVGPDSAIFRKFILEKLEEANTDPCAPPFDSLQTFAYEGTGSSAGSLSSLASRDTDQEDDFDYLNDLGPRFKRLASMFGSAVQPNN
Source text: as §1

[5] = molecular target: T5, muCDH19(44-139)::huCDH19(142-364)::muCDH19(363-770), Flag-tagged, on 293T cells (human/mouse chimera); experiment: FACS, transfected 293T
T5 construct: also called Hu EC2-3; C137847
Source text: as §1

[6] = molecular target: T6, muCDH19(44-247)::huCDH19(250-364)::muCDH19(363-770), Flag-tagged, on 293T cells (human/mouse chimera); experiment: FACS, transfected 293T
T6 construct: also called Hu EC3; C137911
Source text: as §1

[7] = molecular target: T7, muCDH19(44-362)::huCDH19(365-772), Flag-tagged, on 293T cells (human/mouse chimera); experiment: FACS, transfected 293T
T7 construct: also called Hu EC4-5; C137917
T7 chain: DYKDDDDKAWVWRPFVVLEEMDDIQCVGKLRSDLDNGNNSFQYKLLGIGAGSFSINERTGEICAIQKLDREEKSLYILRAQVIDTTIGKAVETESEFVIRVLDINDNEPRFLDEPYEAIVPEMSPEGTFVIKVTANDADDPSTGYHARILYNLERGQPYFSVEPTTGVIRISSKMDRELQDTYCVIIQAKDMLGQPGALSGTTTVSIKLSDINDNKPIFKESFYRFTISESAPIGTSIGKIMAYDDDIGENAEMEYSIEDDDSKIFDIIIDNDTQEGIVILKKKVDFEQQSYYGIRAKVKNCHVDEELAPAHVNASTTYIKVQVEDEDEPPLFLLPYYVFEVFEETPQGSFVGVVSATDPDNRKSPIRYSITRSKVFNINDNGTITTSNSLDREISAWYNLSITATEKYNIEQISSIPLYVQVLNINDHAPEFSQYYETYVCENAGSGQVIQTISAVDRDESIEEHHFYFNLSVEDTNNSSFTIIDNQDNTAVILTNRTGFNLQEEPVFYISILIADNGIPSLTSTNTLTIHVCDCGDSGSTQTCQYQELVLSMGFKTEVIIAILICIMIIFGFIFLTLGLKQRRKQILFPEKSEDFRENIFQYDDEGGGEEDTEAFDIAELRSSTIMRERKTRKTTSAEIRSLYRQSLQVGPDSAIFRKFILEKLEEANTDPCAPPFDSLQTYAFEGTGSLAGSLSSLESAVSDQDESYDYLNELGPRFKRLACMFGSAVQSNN
Source text: as §1

[8] = molecular target: T8, muCDH19(44-461)::huCDH19(464-772), Flag-tagged, on 293T cells (human/mouse chimera); experiment: FACS, transfected 293T
T8 construct: also called Hu EC5; C137915
T8 chain: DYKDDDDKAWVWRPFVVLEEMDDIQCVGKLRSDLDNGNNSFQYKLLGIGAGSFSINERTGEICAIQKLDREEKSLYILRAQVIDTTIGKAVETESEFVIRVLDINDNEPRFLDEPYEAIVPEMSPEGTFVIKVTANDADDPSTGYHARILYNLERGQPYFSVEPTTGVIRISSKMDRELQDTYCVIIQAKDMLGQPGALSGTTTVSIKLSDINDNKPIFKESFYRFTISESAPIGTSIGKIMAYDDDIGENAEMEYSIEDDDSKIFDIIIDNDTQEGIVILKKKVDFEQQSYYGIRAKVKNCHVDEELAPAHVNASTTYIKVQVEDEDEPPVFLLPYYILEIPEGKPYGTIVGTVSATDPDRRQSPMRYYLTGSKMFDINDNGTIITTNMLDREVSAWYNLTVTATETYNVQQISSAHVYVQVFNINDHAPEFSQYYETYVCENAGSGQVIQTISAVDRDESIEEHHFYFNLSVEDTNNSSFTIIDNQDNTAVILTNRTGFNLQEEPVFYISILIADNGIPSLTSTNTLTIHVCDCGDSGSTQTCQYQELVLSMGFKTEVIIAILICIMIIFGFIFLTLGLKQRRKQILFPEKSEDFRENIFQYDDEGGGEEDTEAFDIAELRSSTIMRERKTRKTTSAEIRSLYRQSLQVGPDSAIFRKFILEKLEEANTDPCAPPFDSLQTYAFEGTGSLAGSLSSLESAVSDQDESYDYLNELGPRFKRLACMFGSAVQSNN
Source text: as §1

[9] = molecular target: T9, muCDH19(44-770), Flag-tagged, on 293T cells (mouse); experiment: FACS, transfected 293T
T9 construct: also called Mu EC1-5
T9 chain: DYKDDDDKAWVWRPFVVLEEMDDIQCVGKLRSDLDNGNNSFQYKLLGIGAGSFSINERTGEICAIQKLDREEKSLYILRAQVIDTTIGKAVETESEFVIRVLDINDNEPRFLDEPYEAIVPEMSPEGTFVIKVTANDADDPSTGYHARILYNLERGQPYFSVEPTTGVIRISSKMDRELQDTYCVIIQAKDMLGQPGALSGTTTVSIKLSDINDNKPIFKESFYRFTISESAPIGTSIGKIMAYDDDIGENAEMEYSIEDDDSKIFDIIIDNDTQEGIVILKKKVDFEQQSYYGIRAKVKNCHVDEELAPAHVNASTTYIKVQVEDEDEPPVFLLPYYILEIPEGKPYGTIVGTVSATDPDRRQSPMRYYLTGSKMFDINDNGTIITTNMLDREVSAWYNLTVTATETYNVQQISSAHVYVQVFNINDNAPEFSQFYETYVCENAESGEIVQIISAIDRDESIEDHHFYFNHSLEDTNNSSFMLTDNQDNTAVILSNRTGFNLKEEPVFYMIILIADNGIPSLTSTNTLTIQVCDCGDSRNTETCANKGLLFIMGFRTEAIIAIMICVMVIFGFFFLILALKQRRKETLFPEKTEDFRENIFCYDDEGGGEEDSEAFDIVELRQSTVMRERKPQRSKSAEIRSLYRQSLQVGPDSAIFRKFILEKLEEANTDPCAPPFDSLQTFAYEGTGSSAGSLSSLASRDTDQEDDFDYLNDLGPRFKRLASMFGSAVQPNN
Source text: as §1

[10] = molecular target: T10, Cyno Cadherin-19 (cynomolgus monkey (Macaca fascicularis), UniProt Q9H159 44-772 (human entry)); experiment: FACS, recombinant cyno CDH19
T10 construct: also called cyno CDH19; cynomologous CDH-19
T10 chain: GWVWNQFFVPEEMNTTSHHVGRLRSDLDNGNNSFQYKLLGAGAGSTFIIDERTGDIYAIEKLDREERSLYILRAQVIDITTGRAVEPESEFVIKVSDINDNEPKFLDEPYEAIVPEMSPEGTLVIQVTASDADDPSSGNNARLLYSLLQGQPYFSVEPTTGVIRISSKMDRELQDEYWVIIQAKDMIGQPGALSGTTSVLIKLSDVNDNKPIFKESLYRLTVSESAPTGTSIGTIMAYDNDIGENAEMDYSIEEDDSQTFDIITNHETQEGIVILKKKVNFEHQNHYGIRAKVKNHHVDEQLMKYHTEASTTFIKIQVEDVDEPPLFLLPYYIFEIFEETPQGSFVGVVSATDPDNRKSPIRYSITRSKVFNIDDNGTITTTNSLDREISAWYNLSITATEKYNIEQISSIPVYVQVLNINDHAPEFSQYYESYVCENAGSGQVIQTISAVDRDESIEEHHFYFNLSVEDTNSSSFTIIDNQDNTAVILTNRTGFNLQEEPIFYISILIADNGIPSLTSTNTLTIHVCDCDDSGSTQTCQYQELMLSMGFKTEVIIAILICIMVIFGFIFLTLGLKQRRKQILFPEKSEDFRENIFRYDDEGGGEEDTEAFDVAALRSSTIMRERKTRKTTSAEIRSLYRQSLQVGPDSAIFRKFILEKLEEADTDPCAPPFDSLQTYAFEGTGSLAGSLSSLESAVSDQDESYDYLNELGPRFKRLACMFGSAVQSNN

[11] = molecular target: T11, Human Cadherin-19 (human, UniProt Q9H159 44-772); experiment: FACS, endogenous CDH19 on tumor cells and 293/CDH-19 transfectants
T11 construct: Residues 1-43 are named as the native leader in the construct designations and are left out; also called human CDH19; huCDH19
Procedure: (§2) FACS binding assays were performed to evaluate the binding of the anti-Cadherin-19 receptor specific antibodies to endogenous Cadherin-19 receptor expressed on the CHL-1 tumor cell lines.
(§3) FACs assays were performed by incubating hybridoma supernatants with 10,000 to 25,000 cells in PBS/2% Fetal bovine serum/2 mM Calcium Chloride at 4° C. for one hour followed by two washes with PBS/2% Fetal bovine serum/2 mM Calcium Chloride. Cells were then treated with florochrome-labeled secondary antibodies at 4° C. followed by one wash. The cells were resuspended in 50 μl of PBS/2% FBS and antibody binding was analyzed using a FACSCalibur™ instrument.

[12] = molecular target: T11, Human Cadherin-19; experiment: FACS, endogenous and recombinant human CDH19
Procedure: as §2, §3

Measured: binding result

B1: hu anti-<huCDH19> 2G6 (1-477)(R17G,D61E,D72E,K94N) VH::huIgG1z / 2G6 (1-234)(C42S,D110E) VL::huLLC-C1 (Ab ID 14039) (antibody, V domains shown)
VH: QVQLVESGGGVVQPGGSLRLSCAASGFTFSSYGMHWVRQAPGKGLEWVAFIWYEGSNKYYAESVKDRFTISRDNSKNTLYLQMNSLRAEDTAVYYCARRAGIIGTIGYYYGMDVWGQGTTVTVSS
VL: SYELTQPPSVSVSPGQTASITCSGDRLGEKYTSWYQQRPGQSPLLVIYQDTKRPSGIPERFSGSNSGNTATLTISGTQAMDEADYYCQAWESSTVVFGGGTKLTVLG
notes: Engineered variant of 2G6
binds: [1] | [2] | [3] | [4] | [5] | [6] | [7] | [8] | [9]

B2: hu anti-<huCDH19> 22G10.1 VH::huIgG1z / 22G10.1 VL::huKLC (Ab ID 13877) (antibody, V domains shown)
VH: EVQLLESGGGLVQPGGSLRLSCAASGFTFSSYAMNWVRQAPGKGLEWVSTISGGGANTYYADSVKGRFTISSDNSKSTLYLQMNSLRAADTAVYHCAKGGMGGYYYGMDVWGQGTTVTVSS
VL: EIVMTQSPVTLSLSLGERATLSCRASQSISSNLAWFQQKPGQAPRLLIYGAFTRATGIPARVSGSGSGTEFTLTISSLQSEDFAVYYCQQYNYWPLTFGGGTKVEIKR
binds: [10] | [11]

B3: hu anti-<huCDH19> 4A2 (1-472)(Q17E,H47P) VH::huIgG1z / 4A2 (1-236)(N30Q,T102A) VL::huKLC (Ab ID 14026) (antibody, V domains shown)
VH: QVQLQESGPGLVKPSETLSLTCTVSGGSISSSGYYWSWIRQPPGKGLEWIGYIYYTGSAYYNPSLKSRVTISVDTSKNQFSLKLSSVTAADTAVYYCARDGSSGWYFQYWGQGTLVTVSS
VL: EIVLTQSPGTLSLSPGERATLSCRASRQISSSYLAWYQQKPGQAPRLLIYGPSSRATGIPDRFSGSGSGTDFTLTISRLEPEDFAVYYCQQYGSSFTFGPGTKVDIKR
notes: Engineered variant of 4A2
binds: [1] | [5] | [6]

B4: anti-CDH19 antibody 23A10 (Ab ID 13884) (antibody, human IgG1, lambda, V domains shown)
VH: QVQLVESGGGVVQPGRSLRLSCAASGFTFSRYGIHWVRQAPGKGLEWVAVIWYDGSNKYYADSVKGRFTISRDNSKNTLYLLMNSLRAEDSAVYYCARRAGIPGTTGYYYGMDVWGQGTTVTVSS
VL: SYELTQPPSVSVSPGQTASITCSGDRLGEKYVCWYQQKPGQSPILVIYQDNKWPSGIPERFSGSNSGNTATLTISGTQAMDEADYYCQAWDSSTVVFGGGTKLTVLG
binds: [10] | [12]
